Paper PMC4195775 (The EMBO Journal, 2014)
Ends that are not written are not given here.

B1: GST-NT (recombinant GST-fused girdin NT) (domain or fragment, human, UniProt Q3V6T2 1-256, looked up)
chain: MENEIFTPLLEQFMTSPLVTWVKTFGPLAAGNGTNLDEYVALVDGVFLNQVMLQINPKLESQRVNKKVNNDASLRMHNLSILVRQIKFYYQETLQQLIMMSLPNVLIIGKNPFSEQGTEEVKKLLLLLLGCAVQCQKKEEFIERIQGLDFDTKAAVAAHIQEVTHNQENVFDLQWMEVTDMSQEDIEPLLKNMALHLKRLIDERDEHSETIIELSEERDGLHFLPHASSSAQSPCGSPGMKRTESRQHLSVELADA

Experiments:
[1] = target: B1; assay: in vitro binding assay
[2] = target: EGFRc-His (EGFR cytoplasmic domain, 669-1210) (UniProt P00533 669-1210); assay: pull-down

Row | binding result [1] | binding result [2] | Binder
1 | binds |  | KLLMIIHDRREFAKFEKEKMNAKWDTGENPIYKSAVTTVVNPKYEGK (domain or fragment, UniProt P05556 752-798, looked up, also: His tag, position and length not given here) [ITGB1c-His (integrin β1 cytoplasmic domain, 752-798)]
2 |  | binds | B1
